# Measurements as given in patent US20230241168A1 (ALPINE IMMUNE SCIENCES, published 2023).
# Where a chain is given by its changes, count along the chain named. Names and notes keep the numbering of the source.
# T1: recombinant human APRIL (human, UniProt O75888 105-250, limits assumed)
# T1 sequence (looked up): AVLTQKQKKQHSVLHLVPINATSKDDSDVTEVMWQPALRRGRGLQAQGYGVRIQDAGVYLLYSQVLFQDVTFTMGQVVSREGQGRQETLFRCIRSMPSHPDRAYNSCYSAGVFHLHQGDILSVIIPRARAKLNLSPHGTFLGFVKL
# B1: TACI 516 (EAAAK)6 CTLA 4 668 (other)
# chain: VAMRSCPEEQYWDPLLGTCMSCKTICNHQSQRTCAAFCRSLSCRKEQGKFYDHLLRDCISCASICGQHPKQCAYFCENKLRSEAAAKEAAAKEAAAKEAAAKEAAAKEAAAKKAMHVAQPAVVLASSRGIASFVCEYASPGKATEVRVTVLRQADSQVTEVCAATYMMGNELTFLDDSICTGTSSGNQVNLTIQGLRAMDTGLYICKVELMYPPPYYLGIGNGTQIYVIDPEPSPDSDQDYKDDDDKHHHHHH
# B2: CTLA-4 113 GSG4S Fc (G4S)4 TACI 688 (29-110) (Fc fusion)
# chain: KAMHVAQPAVVFASSHGIASFVCEYASPWKATEVRVTVLRQADSQVTEVCAATYMTGNELTFLDDSICTGTSSGNQVNLTIQGLRAMDTGLYICKVEQMYPPPYLLGIGNGTQIYVIDPEPCPDSDGSGGGGSEPKSSDKTHTCPPCPAPEAEGAPSVFLFPPKPKDTLMISRTPEVTCVVVDVSHEDPEVKFNWYVDGVEVHNAKTKPREEQYNSTYRVVSVLTVLHQDWLNGKEYKCKVSNKALPAPIEKTISKAKGQPREPQVYTLPPSRDELTKNQVSLTCLVKGFYPSDIAVEWESNGQPENNYKTTPPVLDSDGSFFLYSKLTVDKSRWQQGNVFSCSVMHEALHNHYTQKSLSLSPGGGGGSGGGGSGGGGSGGGGSVAMRSCPEEQYWDPLLGTCMSCKTICNHQSQRTCAAFCRSLSCRKEQGKFYDHLLGDCISCASICGQHPKQCAYFCENKLRS
# B3: CTLA 4 165 GSG4S Fc (G4S)2 TACI 516 (Fc fusion)
# chain: KAMHVAQPAVVLASSRGIASFVCEYASPGKATEVRVTVLRQADSQVTEVCAASYMMGNELTFPDDSICTGTSSGNQVNLTIQGLRAMDTGLYICKVEQMYPPPYYLGIGNGTQIYVIDPEPCPDSDGSGGGGSEPKSSDKTHTCPPCPAPEAEGAPSVFLFPPKPKDTLMISRTPEVTCVVVDVSHEDPEVKFNWYVDGVEVHNAKTKPREEQYNSTYRVVSVLTVLHQDWLNGKEYKCKVSNKALPAPIEKTISKAKGQPREPQVYTLPPSRDELTKNQVSLTCLVKGFYPSDIAVEWESNGQPENNYKTTPPVLDSDGSFFLYSKLTVDKSRWQQGNVFSCSVMHEALHNHYTQKSLSLSPGGGGGSGGGGSVAMRSCPEEQYWDPLLGTCMSCKTICNHQSQRTCAAFCRSLSCRKEQGKFYDHLLRDCISCASICGQHPKQCAYFCENKLRS
# B4: CTLA 4 92 GSG4S Fc (G4S)2 TACI 516 (Fc fusion)
# chain: B3 chain with G29W, S53T, N58S, Q82R, Y105L
# B5: CTLA-4 113 GSG4S Fc (G4S)4 TACI 535 (68-110) (Fc fusion)
# chain: KAMHVAQPAVVFASSHGIASFVCEYASPWKATEVRVTVLRQADSQVTEVCAATYMTGNELTFLDDSICTGTSSGNQVNLTIQGLRAMDTGLYICKVEQMYPPPYLLGIGNGTQIYVIDPEPCPDSDGSGGGGSEPKSSDKTHTCPPCPAPEAEGAPSVFLFPPKPKDTLMISRTPEVTCVVVDVSHEDPEVKFNWYVDGVEVHNAKTKPREEQYNSTYRVVSVLTVLHQDWLNGKEYKCKVSNKALPAPIEKTISKAKGQPREPQVYTLPPSRDELTKNQVSLTCLVKGFYPSDIAVEWESNGQPENNYKTTPPVLDSDGSFFLYSKLTVDKSRWQQGNVFSCSVMHEALHNHYTQKSLSLSPGGGGGSGGGGSGGGGSGGGGSSLSCRKEQGKFYDHLLGDCISCASICGQHPKQCAYFCENKLRS
# B6: BCMA 381 GSG4S-Fc-(G4S)4-CTLA-4 186 (Fc fusion)
# chain: LQMAGQCSQNEYFDALLYACIPCQLRCSSNTPPLTCQQYCNASVTNSVKGTNAGSGGGGSEPKSSDKTHTCPPCPAPEAEGAPSVFLFPPKPKDTLMISRTPEVTCVVVDVSHEDPEVKFNWYVDGVEVHNAKTKPREEQYNSTYRVVSVLTVLHQDWLNGKEYKCKVSNKALPAPIEKTISKAKGQPREPQVYTLPPSRDELTKNQVSLTCLVKGFYPSDIAVEWESNGQPENNYKTTPPVLDSDGSFFLYSKLTVDKSRWQQGNVFSCSVMHEALHNHYTQKSLSLSPGGGGGSGGGGSGGGGSGGGGSKAMHVAQPAVVLASSRGIASFVCEYASPWKATEVRVTVLRQADSQVTEVCAATYMMGNELTFLDDSICTGTSSGNQVNLTIQGLRAMDTGLYICKVEQMYPPPYLLGIGNGTQIYVIDPEPCPDSD
# B7: Fc (G4S)2 BCMA (356) (Fc fusion)
# chain: EPKSSDKTHTCPPCPAPEAEGAPSVFLFPPKPKDTLMISRTPEVTCVVVDVSHEDPEVKFNWYVDGVEVHNAKTKPREEQYNSTYRVVSVLTVLHQDWLNGKEYKCKVSNKALPAPIEKTISKAKGQPREPQVYTLPPSRDELTKNQVSLTCLVKGFYPSDIAVEWESNGQPENNYKTTPPVLDSDGSFFLYSKLTVDKSRWQQGNVFSCSVMHEALHNHYTQKSLSLSPGGGGGSGGGGSLQMAGQCSQNEYFDSLLHACIPCQLRCSSNTPPLTCQRYCNASVTNSVKGTNA
# B8: Fc (G4S)2 BCMA (357) (Fc fusion)
# chain: B7 chain with H259Y
# B9: CTLA-4 165 GSG4S Fc (G4S)2 BCMA 356 (Fc fusion)
# chain: KAMHVAQPAVVLASSRGIASFVCEYASPGKATEVRVTVLRQADSQVTEVCAASYMMGNELTFPDDSICTGTSSGNQVNLTIQGLRAMDTGLYICKVEQMYPPPYYLGIGNGTQIYVIDPEPCPDSDGSGGGGSEPKSSDKTHTCPPCPAPEAEGAPSVFLFPPKPKDTLMISRTPEVTCVVVDVSHEDPEVKFNWYVDGVEVHNAKTKPREEQYNSTYRVVSVLTVLHQDWLNGKEYKCKVSNKALPAPIEKTISKAKGQPREPQVYTLPPSRDELTKNQVSLTCLVKGFYPSDIAVEWESNGQPENNYKTTPPVLDSDGSFFLYSKLTVDKSRWQQGNVFSCSVMHEALHNHYTQKSLSLSPGGGGGSGGGGSLQMAGQCSQNEYFDSLLHACIPCQLRCSSNTPPLTCQRYCNASVTNSVKGTNA
# B10: CTLA-4 165 GSG4S Fc (G4S)2 BCMA 357 (Fc fusion)
# chain: B9 chain with H392Y
# B11: CTLA-4 92 GSG4S Fc (G4S)2 BCMA 356 (Fc fusion)
# chain: B9 chain with G29W, S53T, N58S, Q82R, Y105L
# B12: TACI 528 (EAAAK)6 CTLA 4 668 (other)
# chain: SLSCRKEQGKFYDHLLRDCISCASICGQHPKQCAYFCENKLRSEAAAKEAAAKEAAAKEAAAKEAAAKEAAAKKAMHVAQPAVVLASSRGIASFVCEYASPGKATEVRVTVLRQADSQVTEVCAATYMMGNELTFLDDSICTGTSSGNQVNLTIQGLRAMDTGLYICKVELMYPPPYYLGIGNGTQIYVIDPEPSPDSDQDYKDDDDKHHHHHH
# B13: TACI 516 (G4S)3 CTLA 4 668 (other)
# chain: VAMRSCPEEQYWDPLLGTCMSCKTICNHQSQRTCAAFCRSLSCRKEQGKFYDHLLRDCISCASICGQHPKQCAYFCENKLRSGGGGSGGGGSGGGGSKAMHVAQPAVVLASSRGIASFVCEYASPGKATEVRVTVLRQADSQVTEVCAATYMMGNELTFLDDSICTGTSSGNQVNLTIQGLRAMDTGLYICKVELMYPPPYYLGIGNGTQIYVIDPEPSPDSDQDYKDDDDKHHHHHH
# B14: TACI 528 (G4S)3 CTLA 4 668 (other)
# chain: SLSCRKEQGKFYDHLLRDCISCASICGQHPKQCAYFCENKLRSGGGGSGGGGSGGGGSKAMHVAQPAVVLASSRGIASFVCEYASPGKATEVRVTVLRQADSQVTEVCAATYMMGNELTFLDDSICTGTSSGNQVNLTIQGLRAMDTGLYICKVELMYPPPYYLGIGNGTQIYVIDPEPSPDSDQDYKDDDDKHHHHHH
# Target: T1, recombinant human APRIL
# Assay: cell-based or functional assay
IC50 (nM) APRIL,IC50 APRIL (Δ Parental vTD),Binder
138 nM,15 ratio,B1
8.25 nM,1.4 ratio,B2
4.64 nM,0.9 ratio,B3
6.75 nM,1.3 ratio,B4
8.63 nM,,B5
0.876 nM,,B6
42.7 nM,1 ratio,B7
0.696 nM,1 ratio,B8
0.894 nM,0 ratio,B9
0.606 nM,0.9 ratio,B10
0.809 nM,0 ratio,B11

# Target: recombinant human BAFF (human, UniProt Q9Y275 134-285)
# Assay: cell-based or functional assay
IC50 (nM) BAFF,IC50 BAFF (Δ Parental vTD),Binder
3.42 nM,1.3 ratio,B1
5.18 nM,2 ratio,B12
0.566 nM,0.4 ratio,B2
0.928 nM,0.5 ratio,B3
1.73 nM,1 ratio,B4
0.506 nM,0.4 ratio,B5
8.75 nM,3.4 ratio,B13
8.41 nM,3.3 ratio,B14
0.0617 nM,,B6
42.7 nM,1 ratio,B7
5.44 nM,1 ratio,B8
36.8 nM,0.9 ratio,B9
11.8 nM,2.2 ratio,B10
33.5 nM,0.8 ratio,B11
